These are literature values, as cited in patent publication US20060105948A1, “GLP-2 derivatives” (Novo Nordisk A/S, priority 2003, published 2006).

Series [1] relates to (DS)-induced colitis in mice. The following applies: 350 ng or 750 ng s.c. twice daily for 9-10 days.
The conditions of series [2]: humans.
For series [3] the following is noted: in vivo.
[4] abbreviates: s.c. injection 400 mg = 106.000 pmol.

As for “A2G-GLP-2(1-33) (HGDGSFSDEMNTILDNLAARDFINWLIQTKITD; Glucagon-like peptide 2; UniProt P01275 146-178, looked up, variant A2G) [GLP-2 peptide analog with Ala2 replaced by Gly]”, the histology of colon entry in series [1] (DS mice) was “greater proportion of intact mucosal epithelium, increased colon length, crypt depth and mucosal area”. Besides, the body weight loss entry in series [1] (mice on 5% DS in drinking water) was “lost significantly less body weight”.

Take GLP-2(1-33): the “T½ value of elimination” value in series [2] (GLP-2 infusion 0.8 pmol/kg * min) is 7 min. For the same substance, the “plasma level of intact GLP-2(1-33) reached on infusion” value in series [2] (GLP-2 infusion 0.8 pmol/kg * min, increasing from 9 pM) was 0.131 nM. Also, in series [2] (one hour after the s.c. injection), the “injected GLP-2(1-33) still intact” value is 69%. For the same substance, in series [2] (setting [4]), the maximum plasma concentration is 1500 pM and the “time of maximum plasma concentration” value is recorded as 45 min. The biological half-life entry in series [3] is on record as “about 7 min”.
